These results are taken from patent publication US20200262916A1, “Mammalian Atg8 Proteins Control Autolysosomal Biogenesis Through SNARES” (STC. UNM, priority 2019, published 2020).

For assay [1], the system named is HeLa cells stably expressing YFP-Parkin. As to the kind of experiment: Parkin-dependent mitophagy, HCM quantification of mitochondrial DNA (mtDNA). Format: cell-based. The following applies: wild type HeLa-YFP-Parkin cells; CCCP 10 μM or oligomycin A 5 μM and antimycin A 10 μM; 16 hours.
The subject of assay [2] is Huh7 cells. As to the kind of experiment: Pexophagy, Western blot of peroxisomal proteins PEX14 and PMP70. In kind it is cell-based. As to conditions: H2O2 0.4 mM, over a period of 6 hours.
In assay [3] the target is T1, VPS41 (endogenous) (UniProt P49754 1-854, limits assumed).
T1 construct: also called HOPS component VPS41
T1 sequence (looked up): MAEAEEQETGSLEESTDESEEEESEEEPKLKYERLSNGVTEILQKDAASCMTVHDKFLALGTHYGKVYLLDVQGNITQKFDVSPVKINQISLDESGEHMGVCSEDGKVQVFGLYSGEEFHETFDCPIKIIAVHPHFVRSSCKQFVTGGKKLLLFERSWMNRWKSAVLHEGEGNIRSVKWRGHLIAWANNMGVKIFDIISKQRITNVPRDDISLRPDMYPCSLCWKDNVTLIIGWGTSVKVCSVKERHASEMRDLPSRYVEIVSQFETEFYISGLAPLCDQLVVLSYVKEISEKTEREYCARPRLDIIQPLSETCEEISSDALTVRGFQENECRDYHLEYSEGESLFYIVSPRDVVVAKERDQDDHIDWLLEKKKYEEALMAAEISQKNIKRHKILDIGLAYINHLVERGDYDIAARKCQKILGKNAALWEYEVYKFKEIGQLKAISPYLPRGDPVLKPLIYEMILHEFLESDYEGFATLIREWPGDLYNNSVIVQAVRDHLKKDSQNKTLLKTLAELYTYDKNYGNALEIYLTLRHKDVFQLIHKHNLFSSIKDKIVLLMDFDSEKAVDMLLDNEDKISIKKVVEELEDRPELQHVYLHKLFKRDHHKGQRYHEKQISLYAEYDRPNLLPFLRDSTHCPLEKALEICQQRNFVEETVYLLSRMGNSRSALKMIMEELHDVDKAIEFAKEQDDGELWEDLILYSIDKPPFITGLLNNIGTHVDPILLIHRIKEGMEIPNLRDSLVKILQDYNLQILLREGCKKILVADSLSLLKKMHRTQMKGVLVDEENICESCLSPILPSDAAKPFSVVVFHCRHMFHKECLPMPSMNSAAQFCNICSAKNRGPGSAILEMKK
As to the kind of experiment: endogenous Co-IP with mouse anti-Stx6 antibody, HeLa cells.

In assay [4] the target is T2, VPS33A (endogenous, a component of the HOPS complex) (UniProt Q96AX1 1-596).
T2 sequence (looked up): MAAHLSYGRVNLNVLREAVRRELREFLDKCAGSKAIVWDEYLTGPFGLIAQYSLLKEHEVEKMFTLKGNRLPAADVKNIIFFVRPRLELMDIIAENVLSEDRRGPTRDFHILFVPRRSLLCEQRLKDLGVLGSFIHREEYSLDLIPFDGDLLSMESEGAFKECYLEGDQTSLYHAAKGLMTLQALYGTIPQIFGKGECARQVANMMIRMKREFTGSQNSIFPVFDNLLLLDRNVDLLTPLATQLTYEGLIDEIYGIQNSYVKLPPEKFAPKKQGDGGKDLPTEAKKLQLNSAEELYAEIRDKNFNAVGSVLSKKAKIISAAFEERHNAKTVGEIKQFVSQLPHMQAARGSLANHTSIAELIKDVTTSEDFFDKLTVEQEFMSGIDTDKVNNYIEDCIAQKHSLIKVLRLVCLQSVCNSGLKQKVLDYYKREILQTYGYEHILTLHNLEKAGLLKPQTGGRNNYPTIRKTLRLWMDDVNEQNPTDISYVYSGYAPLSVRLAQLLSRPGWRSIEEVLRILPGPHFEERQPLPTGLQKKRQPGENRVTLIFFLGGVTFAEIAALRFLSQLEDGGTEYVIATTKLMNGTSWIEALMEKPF
The assay is described as above.

Regarding `N#CC(C#N)=NNc1cccc(Cl)c1` [CCCP], in assay [1], the “mtDNA as a measure of cellular mitochondrial content” value was “major reduction”.
Consider `OO` [H2O2], for which the “levels of peroxisomal constituents PEX14 and PMP70” value in assay [2] is reported as “decrease”.

B1: Stx6 (endogenous, precipitated with mouse anti-Stx6 antibody from HeLa cells) (other, UniProt O43752 2-255, looked up)
chain: SMEDPFFVVKGEVQKAVNTAQGLFQRWTELLQDPSTATREEIDWTTNELRNNLRSIEWDLEDLDETISIVEANPRKFNLDATELSIRKAFITSTRQVVRDMKDQMSTSSVQALAERKNRQALLGDSGSQNWSTGTTDKYGRLDRELQRANSHFIEEQQAQQQLIVEQQDEQLELVSGSIGVLKNMSQRIGGELEEQAVMLEDFSHELESTQSRLDNVMKKLAKVSHMTSDRRQWCAIAILFAVLLVVLILFLVL
notes: also called syntaxin 6
B1: the binding result is “binds” in assay [3] and “no binding” in assay [4].

B2: Vti1a (endogenous, in HeLa and U2OS cells) (other, UniProt Q96AJ9 1-217, looked up)
chain: MSSDFEGYEQDFAVLTAEITSKIARVPRLPPDEKKQMVANVEKQLEEAKELLEQMDLEVREIPPQSRGMYSNRMRSYKQEMGKLETDFKRSRIAYSDEVRNELLGDDGNSSENQRAHLLDNTERLERSSRRLEAGYQIAVETEQIGQEMLENLSHDREKIQRARERLRETDANLGKSSRILTGMLRRIIQNRILLVILGIIVVITILMAITFSVRRH
Consider B2, for which, in assay [4], the binding result is “no binding”.
